Here are results for 17 molecules from US20210380703A1 (RIGEL PHARMACEUTICALS, published 2021).

Assay [1] deals with T1, human ACVR2A (human, UniProt P27037 20-135, limits assumed).
T1 construct: also called activin receptor, type II A
Briefly: ELISA. The method, boiled down: (§1)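 ELISA measured binding of ACVR2A-specific monoclonal antibodies to human and mouse ACVR2A. Biotinylated goat anti-human kappa light chain served as positive control and human Fc as negative control.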
(ELISA stands for enzyme-linked immunosorbent assay.)

Assay [2] addresses mouse ACVR2A (mouse, UniProt P27038 20-135, limits assumed). Briefly: ELISA. The method, boiled down:
as §1

For assay [3], the target named is T2, biotinylated goat anti-human kappa light chain.
T2 construct: positive control of the ELISA
The assay can be described thus: ELISA, positive control. The method, boiled down: as §1
Note: test concentration or dose not given here.

T1 sequence (P27037 20-135 limits assumed): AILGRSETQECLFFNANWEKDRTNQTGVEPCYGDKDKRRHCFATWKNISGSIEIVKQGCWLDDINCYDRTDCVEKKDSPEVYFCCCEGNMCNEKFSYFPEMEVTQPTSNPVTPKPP
mouse ACVR2A, sequence (P27038 20-135 limits assumed): as the sequence (P27037 20-135 limits assumed) above, with K20R, V73I counted along it

B1: 366_F02 (antibody, V domains shown)
VH: EVQLLESGGGLVQPGGSLRLSCAASGFTFSSYGMNWVRQAPGKGLEWVSGINYNSGYTGYADSVKGRFTISRDNSKNTLYLQMNSLRAEDTAVYYCARGANWHDTHLDYWGQGTLVTVSS
VL: DIQMTQSPSSLSASVGDRVTITCRASQSILTYLNWYQQKPGKAPKLVIYAATSRHSGVPSRFSGSGSGTDFTLTISSLQPEDFATYYCQQSYDNPLTFGGGTKVEIK
notes: Group III
Regarding B1, the optical density was 2.15 OD in assay [1], 2.11 OD in assay [2] and 3.6 OD in assay [3].

B2: 366_F10 (antibody, V domains shown)
VH: EVQLLESGGGLVQPGGSLRLSCAASGFTFDSYSMNWVRQAPGKGLEWVAGINYNGGYTGYADSVKGRFTISRDNSKNTLYLQMNSLRAEDTAVYYCARAANWHDTHLDYWGQGTLVTVSS
VL: DIQMTQSPSSLSASVGDRVTITCRASQSIVSYLNWYQQKPGKAPKLVIYAATSRASGVPSRFSGSGSGTDFTLTISSLQPEDFATYYCQQSYDTPLTFGGGTKVEIK
notes: Group I
In the case of B2, the optical density in assay [1] was 2.05 OD; in assay [2] it was 2.21 OD; in assay [3] it was 3.52 OD.

B3: 367_B11 (antibody, V domains shown)
VH: EVQLLESGGGLVQPGGSLRLSCAASGFTFSDYSMHWVRQAPGKGLEWVANINYNSGYTSYADSVKGRFTISRDNSKNTLYLQMNSLRAEDTAVYYCARAANWHDTALDYWGQGTLVTVSS
VL: DIQMTQSPSSLSASVGDRVTITCRASQSILSYLNWYQQKPGKAPKLVIYAATSRASGVPSRFSGSGSGTDFTLTISSLQPEDFATYYCQQSYSTPLTFGGGTKVEIK
notes: Group I
Consider B3, for which the optical density was determined as 2.34 OD in assay [1], 2.46 OD in assay [2] and 3.6 OD in assay [3].

B4: 367_C06 (antibody, V domains shown)
VH: EVQLLESGGGLVQPGGSLRLSCAASGFTFDSYSMHWVRQAPGKGLEWVASINYNGGYKSYADSVKGRFTISRDNSKNTLYLQMNSLRAEDTAVYYCARAATWHDTHLDYWGQGTLVTVSS
VL: DIQMTQSPSSLSASVGDRVTITCRASQSILTYLNWYQQKPGKAPKLVIYAATSLHSGVPSRFSGSGSGTDFTLTISSLQPEDFATYYCQQSYDTPLTFGGGTKVEIK
notes: Group II
B4: the optical density in assay [1] was found to be 2.12 OD; in assay [2], 2.51 OD; in assay [3] it was 3.5 OD.

B5: 366_G02 (antibody, V domains shown)
VH: EVQLLESGGGLVQPGGSLRLSCAASGFTFDSYGMHWVRQAPGKGLEWVSSINYNGGYTSYADSVKGRFTISRDNSKNTLYLQMNSLRAEDTAVYYCARAATWHDTHLDYWGQGTLVTVSS
VL: DIQMTQSPSSLSASVGDRVTITCRASQSILTYLNWYQQKPGKAPKLLIYAATSRHSGVPSRFSGSGSGTDFTLTISSLQPEDFATYYCQQSDDNPLTFGGGTKVEIK
notes: Group II
In the case of B5, the optical density in assay [1] was found to be 2.16 OD; in assay [2], 2.32 OD; in assay [3], 3.56 OD.

B6: 367_E08 (antibody, V domains shown)
VH: EVQLLESGGGLVQPGGSLRLSCAASGFTFSDYGMNWVRQAPGKGLEWVASINYNGGYTSYADSVKGRFTISRDNSKNTLYLQMNSLRAEDTAVYYCARAATWHDTHLDYWGQGTLVTVSS
VL: DIQMTQSPSSLSASVGDRVTITCRASQSILSYLNWYQQKPGKAPKLLIYATTSRASGVPSRFSGSGSGTDFTLTISSLQPEDFATYYCQQSYDNPLTFGGGTKVEIK
notes: Group II
Turning to B6, the optical density in assay [1] turned out to be 2.04 OD; in assay [2], 2.37 OD; in assay [3] it was 3.43 OD.

B7: 367_D11 (antibody, V domains shown)
VH: EVQLLESGGGLVQPGGSLRLSCAASGFTFDSYGMHWVRQAPGKGLEWVSNINYNGGYKSYADSVKGRFTISRDNSKNTLYLQMNSLRAEDTAVYYCARAANWHDTALDYWGQGTLVTVSS
VL: DIQMTQSPSSLSASVGDRVTITCRASQSIISYLNWYQQKPGKAPKLLIYAATSRASGVPSRFSGSGSGTDFTLTISSLQPEDFATYYCQQSYDSPLTFGGGTKVEIK
notes: Group I
For the molecule B7, the optical density in assay [1] was found to be 2.4 OD; in assay [2], 2.54 OD; in assay [3] it was 3.39 OD.

B8: 367_A03 (antibody, V domains shown)
VH: EVQLLESGGGLVQPGGSLRLSCAASGFTFDSYGMNWVRQAPGKGLEWVAGINYNGGYTSYADSVKGRFTISRDNSKNTLYLQMNSLRAEDTAVYYCARGANWHDTALDYWGQGTLVTVSS
VL: DIQMTQSPSSLSASVGDRVTITCRASQSILTYVNWYQQKPGKAPKLLIYATTSRHSGVPSRFSGSGSGTDFTLTISSLQPEDFATYYCQQSYDSPLTFGGGTKVEIK
notes: Group III
In the case of B8, the optical density was found to be 2.58 OD in assay [1], 2.45 OD in assay [2] and 3.44 OD in assay [3].

B9: 366_H01 (antibody, V domains shown)
VH: EVQLLESGGGLVQPGGSLRLSCAASGFTFDDYSMHWVRQAPGKGLEWVANINYNGGYTSYADSVKGRFTISRDNSKNTLYLQMNSLRAEDTAVYYCARAATWHDTHLDYWGQGTLVTVSS
VL: DIQMTQSPSSLSASVGDRVTITCRASQSILTYLNWYQQKPGKAPKLVIYATTSRHSGVPSRFSGSGSGTDFTLTISSLQPEDFATYYCQQSYESPLTFGGGTKVEIK
notes: Group II
As for B9, the optical density in assay [1] came to 2.79 OD; in assay [2], 2.77 OD; in assay [3] it was 3.71 OD.

B10: 367_C12 (antibody, V domains shown)
VH: EVQLLESGGGLVQPGGSLRLSCAASGFTFSSYGMHWVRQAPGKGLEWVSGINYNGGYTSYADSVKGRFTISRDNSKNTLYLQMNSLRAEDTAVYYCARAATWHDTHLDYWGQGTLVTVSS
VL: DIQMTQSPSSLSASVGDRVTITCRASQSILSYVNWYQQKPGKAPKLLIYATTSRHSGVPSRFSGSGSGTDFTLTISSLQPEDFATYYCQQSYESPLTFGGGTKVEIK
notes: Group II
Turning to B10, the figures for the optical density in assay [1], in assay [2] and in assay [3] were 2.06 OD, 2.1 OD and 3.58 OD, respectively.

B11: 366_H04 (antibody, V domains shown)
VH: EVQLLESGGGLVQPGGSLRLSCAASGFTFDSYGMNWVRQAPGKGLEWVSNINYNGGYKSYADSVKGRFTISRDNSKNTLYLQMNSLRAEDTAVYYCARGANWHDTHLDYWGQGTLVTVSS
VL: DIQMTQSPSSLSASVGDRVTITCRASQSILTYLNWYQQKPGKAPKLLIYAATSRASGVPSRFSGSGSGTDFTLTISSLQPEDFATYYCQQSYSSPLTFGGGTKVEIK
notes: Group III
Regarding B11, the optical density in assay [1] amounted to 2.69 OD; in assay [2], 2.83 OD; in assay [3] it was 3.52 OD.

B12: 367_B09 (antibody, V domains shown)
VH: EVQLLESGGGLVQPGGSLRLSCAASGFTFDSYGMHWVRQAPGKGLEWVASINYNGGYTSYADSVKGRFTISRDNSKNTLYLQMNSLRAEDTAVYYCARAANWHDTALDYWGQGTLVTVSS
VL: DIQMTQSPSSLSASVGDRVTITCRASQSILSYVNWYQQKPGKAPKLVIYAATSRASGVPSRFSGSGSGTDFTLTISSLQPEDFATYYCQQSYENPLTFGGGTKVEIK
notes: Group I
Consider B12, for which the optical density worked out at 2.42 OD in assay [1], 2.43 OD in assay [2] and 3.37 OD in assay [3].

B13: 366_G06 (antibody, V domains shown)
VH: EVQLLESGGGLVQPGGSLRLSCAASGFTFSSYGMHWVRQAPGKGLEWVASINYNGGYTGYADSVKGRFTISRDNSKNTLYLQMNSLRAEDTAVYYCARAANWHDTHLDYWGQGTLVTVSS
VL: DIQMTQSPSSLSASVGDRVTITCRASQSIVSYVNWYQQKPGKAPKLVIYAATSRASGVPSRFSGSGSGTDFTLTISSLQPEDFATYYCQQSYDNPLTFGGGTKVEIK
notes: Group I
Regarding B13, the optical density in assay [1] worked out at 2.68 OD; in assay [2] it was 2.82 OD; in assay [3], 3.41 OD.

B14: 366_G12 (antibody, V domains shown)
VH: EVQLLESGGGLVQPGGSLRLSCAASGFTFSSYGMHWVRQAPGKGLEWVSGINYNSGYKGYADSVKGRFTISRDNSKNTLYLQMNSLRAEDTAVYYCARGANWHDTHLDYWGQGTLVTVSS
VL: DIQMTQSPSSLSASVGDRVTITCRASQSILSYLNWYQQKPGKAPKLLIYAATSRHSGVPSRFSGSGSGTDFTLTISSLQPEDFATYYCQQSYNTPLTFGGGTKVEIK
notes: Group III
For the molecule B14, the optical density in assay [1] was 2.71 OD; in assay [2] it was 2.83 OD; in assay [3], 3.59 OD.

B15: 367_A06 (antibody, V domains shown)
VH: EVQLLESGGGLVQPGGSLRLSCAASGFTFDSYGMNWVRQAPGKGLEWVASINYNGGYKGYADSVKGRFTISRDNSKNTLYLQMNSLRAEDTAVYYCARGANWHDTHLDYWGQGTLVTVSS
VL: DIQMTQSPSSLSASVGDRVTITCRASQSILSYVNWYQQKPGKAPKLLIYAATSRHSGVPSRFSGSGSGTDFTLTISSLQPEDFATYYCQQSYDTPLTFGGGTKVEIK
notes: Group III
In the case of B15, the optical density in assay [1] was 2.34 OD; in assay [2] it was 2.57 OD; in assay [3], 3.36 OD.

B16: 367_A08 (antibody, V domains shown)
VH: EVQLLESGGGLVQPGGSLRLSCAASGFTFDSYGMNWVRQAPGKGLEWVAGINYNGGYTSYADSVKGRFTISRDNSKNTLYLQMNSLRAEDTAVYYCARGANWHDTHLDYWGQGTLVTVSS
VL: DIQMTQSPSSLSASVGDRVTITCRASQSILTYLNWYQQKPGKAPKLLIYAVTSRASGVPSRFSGSGSGTDFTLTISSLQPEDFATYYCQQSYDSPLTFGGGTKVEIK
notes: Group III
B16: the optical density was 2.06 OD in assay [1], 2.09 OD in assay [2] and 3.34 OD in assay [3].

B17: 367_C09 (antibody, V domains shown)
VH: EVQLLESGGGLVQPGGSLRLSCAASGFTFDSYGMHWVRQAPGKGLEWVASINYNGGYTSYADSVKGRFTISRDNSKNTLYLQMNSLRAEDTAVYYCARAANWHDTHLDYWGQGTLVTVSS
VL: DIQMTQSPSSLSASVGDRVTITCRASQSILSYVNWYQQKPGKAPKLVIYAATSRHSGVPSRFSGSGSGTDFTLTISSLQPEDFATYYCQQSYNTPLTFGGGTKVEIK
notes: Group I
B17: the optical density was found to be 2.41 OD in assay [1], 2.77 OD in assay [2] and 3.44 OD in assay [3].
